Reference: US20210032351A1 (XDCEXPLORER SHANGHAI, published 2021)
Ends that are not written are not given here. * marks the point of attachment. Biotin = O=C1N[C@H]2[C@H](CS[C@H]2CCCCC(=O)*)N1

Experiments:
[1] = biological target: T1, human EGFRvIII-hFc protein (human, UniProt P00533 25-645); test: ELISA, coated EGFRvIII-hFc, antibody 0.001 nM
T1 construct: extracellular domain; made in HEK293 cells, purified on protein A; also called immunogen A; hFc-tagged EGFRvIII protein; not shown: human IgG Fc fragment (hFc) of the pCpC vector
Procedure, shortened: (§1)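 Plates coated overnight at 4° C with EGFRvIII-hFc at 1.0 μg/mL, blocked with 1% BSA, then incubated with purified anti-EGFRvIII antibody 2 h at 37° C. Bound antibody detected with HRP secondary (2 h, 37° C) and TMB for 30 min, HCl-stopped, read at A450.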

[2] = biological target: T1, human EGFRvIII-hFc protein; test: ELISA, coated EGFRvIII-hFc, antibody 10 nM
Procedure, shortened: as §1

pep26 = biological target: T2, pep26 (cysteine pairing not given here); test: polypeptide dot matrix ELISA
T2 peptide: EMEEDGVRKCKKCEGPK(Biotin)

pep29 = biological target: T3, pep29 (cysteine pairing not given here); test: polypeptide dot matrix ELISA
T3 peptide: EDGVRKCKKCEGPCRKK(Biotin)

pep06 = biological target: T4, pep06 (cysteine pairing not given here); test: polypeptide dot matrix ELISA
T4 peptide: GNYVVTDHGSCVRACGK(Biotin)

pep25 = biological target: T5, pep25 (cysteine pairing not given here); test: polypeptide dot matrix ELISA
T5 peptide: YEMEEDGVRKCKKCEGK(Biotin)

pep33 = biological target: T6, pep33 (cysteine pairing not given here); test: polypeptide dot matrix ELISA
T6 peptide: RKCKKCEGPCRKVCNGK(Biotin)

pep22 = biological target: T7, pep22; test: polypeptide dot matrix ELISA
T7 peptide: ADSYEMEEDGVRKCKKK(Biotin)

pep07 = biological target: T8, pep07 (cysteine pairing not given here); test: polypeptide dot matrix ELISA
T8 peptide: NYVVTDHGSCVRACGAK(Biotin)

pep12 = biological target: T9, pep12 (cysteine pairing not given here); test: polypeptide dot matrix ELISA
T9 peptide: DHGSCVRACGADSYEMK(Biotin)

pep13 = biological target: T10, pep13 (cysteine pairing not given here); test: polypeptide dot matrix ELISA
T10 peptide: HGSCVRACGADSYEMEK(Biotin)

pep01 = biological target: T11, pep01; test: polypeptide dot matrix ELISA
T11 peptide: LEEKKGNYVVTDHGSCK(Biotin)

pep34 = biological target: T12, pep34 (cysteine pairing not given here); test: polypeptide dot matrix ELISA
T12 peptide: KCKKCEGPCRKVCNGIK(Biotin)

pep31 = biological target: T13, pep31 (cysteine pairing not given here); test: polypeptide dot matrix ELISA
T13 peptide: GVRKCKKCEGPCRKVCK(Biotin)

pep08 = biological target: T14, pep08 (cysteine pairing not given here); test: polypeptide dot matrix ELISA
T14 peptide: YVVTDHGSCVRACGADK(Biotin)

pep05 = biological target: T15, pep05 (cysteine pairing not given here); test: polypeptide dot matrix ELISA
T15 peptide: KGNYVVTDHGSCVRACK(Biotin)

pep21 = biological target: T16, pep21; test: polypeptide dot matrix ELISA
T16 peptide: GADSYEMEEDGVRKCKK(Biotin)

pep03 = biological target: T17, pep03; test: polypeptide dot matrix ELISA
T17 peptide: EKKGNYVVTDHGSCVRK(Biotin)

pep35 = biological target: T18, pep35 (cysteine pairing not given here); test: polypeptide dot matrix ELISA
T18 peptide: CKKCEGPCRKVCNGIGK(Biotin)

pep27 = biological target: T19, pep27 (cysteine pairing not given here); test: polypeptide dot matrix ELISA
T19 peptide: MEEDGVRKCKKCEGPCK(Biotin)

[3] = biological target: T20, human EGFRvIII protein on the cell surface (human, UniProt P00533 25-1210); test: FACS on U87MG-EGFRvIII cells
T20 construct: whole, on cells; the cell line is named under assay; also called hEGFRvIII; U87MG-hEGFRvIII
Procedure, shortened: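 U87MG-EGFRvIII, A431 and primary human hepatocytes (2×10⁶ cells/mL, goat-serum blocked) were incubated with antibody on ice for 2 h, then with an Alexa 488 secondary (1:1000) for 1 h and fixed in 4% paraformaldehyde. Mean fluorescence intensity was read by flow cytometry, and EC50 was derived by curve fitting.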

B1: Murine anti-75G7 (antibody, V domains shown)
VH: EVQLQQSGPELVKPGASVKIPCKASGYTFTDYNMDWVKQSHGKSLEWIGDINPNNGDTIYNQKFKGKATLTVDKSSSTAYMELRSLTSEDTAVYYCARGDYDGYYPVYYAMDYWGQGTSVTVSS
VL: ENVLTQSPAIMSASPGEKVTMTCRASSSVSSSYLHWYQQKSGASPKLWIFSTSNLAAGVPARFSGSGSGTSYSLTVSSVEAEDAATYYCQQYSGYPLTFGAGTKLELK
notes: murine hybridoma antibody; also called 75G7C6
no binding: binding result (pep26) | binding result (pep29) | binding result (pep06) | binding result (pep25) | binding result (pep33) | binding result (pep22) | binding result (pep07) | binding result (pep12) | binding result (pep13) | binding result (pep01) | binding result (pep34) | binding result (pep31) | binding result (pep08) | binding result (pep05) | binding result (pep21) | binding result (pep03) | binding result (pep35) | binding result (pep27)
0.07: OD450 nm [1]
0.19: OD450 nm [2]

B2: Chimeric antibody 75G7 (antibody, human IgG1, V domains shown)
VH: B1 VH
VL: B1 VL
notes: also called c75G7C6; chimeric antibody c75G7C6
18100 MFI: Maximum mean fluorescence intensity [3]
5.75 nM: EC50 [3]
